This is an account of results in publication PMC3233348 (2012).

In assay [1] the target is methylamine dehydrogenase (MADH) (Paracoccus denitrificans) (UniProt P22619). The note with it: cited from earlier work.
The target of assay [2] is T1, methylamine dehydrogenase (MADH) (Paracoccus denitrificans, UniProt P22619).
T1 chain 1: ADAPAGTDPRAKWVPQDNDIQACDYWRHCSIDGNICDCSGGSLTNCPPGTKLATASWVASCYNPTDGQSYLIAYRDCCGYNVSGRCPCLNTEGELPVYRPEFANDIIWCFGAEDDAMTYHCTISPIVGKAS
T1 chain 2: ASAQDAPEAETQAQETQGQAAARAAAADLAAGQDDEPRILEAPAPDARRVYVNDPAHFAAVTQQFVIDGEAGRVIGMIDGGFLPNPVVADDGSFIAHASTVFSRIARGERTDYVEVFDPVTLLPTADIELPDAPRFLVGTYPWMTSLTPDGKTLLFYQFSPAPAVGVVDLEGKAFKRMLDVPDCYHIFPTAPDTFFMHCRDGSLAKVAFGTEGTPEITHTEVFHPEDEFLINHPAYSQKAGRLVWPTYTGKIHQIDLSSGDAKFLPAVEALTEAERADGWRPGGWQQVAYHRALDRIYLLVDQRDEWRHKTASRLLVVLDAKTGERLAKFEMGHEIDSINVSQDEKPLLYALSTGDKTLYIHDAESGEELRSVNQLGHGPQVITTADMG
The assay can be described thus: steady-state kinetics competitive inhibition.

For the molecule amicyanin (from UniProt P22364), the equilibrium dissociation constant (Kd) – broadly, the constant that tells how readily two partners part at equilibrium – in assay [1] was 5 µM.

B1: M98K amicyanin (protein)
chain: DKATIPSESPFAAAEVADGAIVVDIAKMKYETPELHVKVGDTVTWINREAMPHNVHFVAGVLGEAALKGPMKKKEQAYSLTFTEAGTYDYHCTPHPFMRGKVVVE
Turning to B1, in assay [2], the Ki (usually the dissociation constant of the complex between target and ligand, obtained from inhibition or displacement) stood at 7.2 µM.
